# Source: the supplement of paper PMC10126150
# ± gives the standard deviation of the averaged measurements.
# Tested on: ATP
# Assay: switch fluorescence ratio, 500 uM ATP over buffer (Cy3 cluster intensity, sum of 5 cycles each) (fold (ratio)); higher = stronger signal-on switching upon ATP binding; sequences stand for … in TCGTCGGCAGCGTCAGATGTGTATAAGAGACAGTTTTTTTTTTTTTTTTTTTTTTTTT…TC
# Conditions: aptamer strand: ATP DNA aptamer (quencher-CACCTGGGGGAGTATTGCGGAGGAAGG + anchor), 100 nM annealed; ATP concentration: 500 uM
# In short: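 The fluorescence ratio divides summed target-cycle Cy3 intensity by summed buffer-cycle Cy3 intensity for each cluster and is averaged per switch-domain sequence. Cy3-labelled switching-strand clusters on a modified Illumina MiSeq flow-cell were annealed to 100 nM quencher-labelled ATP aptamer, then imaged in selection buffer and again after 15 min with 500 uM ATP at 22 °C. Five such cycles were run, with NaOH stripping and re-annealing between them, and clusters outside 100-1000 RFU were excluded.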
# 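Also: ATP exposure 15 min at 22 °C before imaging.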
row,Sequence,switch fluorescence ratio
1,TTTTTTTTTA,1.01 ± 0.022
2,GGTGTGCCAA,1 ± 0.022
3,ATGGCAACAT,1.01 ± 0.041
4,CTTAGGGCGG,0.957 ± 0.027
5,TTTTCGGCTG,0.943 ± 0.11
6,CGACTGCAGT,1.19 ± 0.014
7,GTTTAATTGG,1 ± 0.024
8,GTATTTTCGC,1.02 ± 0.017
9,TTGTTTTAGT,1.06 ± 0.067
10,TTGCTAAAAA,1.04 ± 0.03
11,CACCGGCTGG,0.986 ± 0.086
12,GGTGAAAGCT,1.04 ± 0.019
13,TGCAACGTCG,0.998 ± 0.019
14,GGTCTCAGGT,1.03 ± 0.023
15,ATGACTTATT,0.968 ± 0.027
16,TCAAGTAGAG,0.99 ± 0.011
17,GGCTGACCGG,1 ± 0.048
18,TTTGTCGACC,0.992 ± 0.0055
19,GTCGTCCGGG,0.986 ± 0.028
20,TTTTGTGATT,0.984 ± 0.013
21,TAGAAAGGGA,1.02 ± 0.039
22,CTGGGTGGCG,1.01 ± 0.069
23,CTTGGATGGG,0.9858 ± 0.0089
24,AAGGGGATGG,0.968 ± 0.038
25,ATCCTTAAGG,0.961 ± 0.026

row,Sequence,switch fluorescence ratio
1,CAATCAACCG,1.064 ± 0.0015
2,CGCGGGGGTG,1.03 ± 0.024
3,AGTTTGGCGG,0.923 ± 0.084
4,TTTTTCGTAA,1.04 ± 0.061
5,AAATTTTAGG,1.034 ± 0.0013
6,CCGCAGGGTT,1.51 ± 0.58
7,GGAGGGGGAG,0.9817 ± 0.0084
8,TTATTTGTAC,1.052 ± 0.0021
9,TAAGTGGGTG,1.01 ± 0.027
10,CTATCAGCTA,1.1 ± 0.03
11,GGTGGGGAAT,0.979 ± 0.022
12,ACACGTTCTT,0.996 ± 0.019
13,TCATATTTAT,0.996 ± 0.024
14,GGACGGTAGG,0.979 ± 0.011
15,GGGAATTACT,1.87 ± 1.1
16,TGCTTGTTTT,0.9912 ± 0.0038
17,TCCCCGACGT,1.53 ± 0.22
18,TTCAGTTTGG,1.01 ± 0.038
19,GTGGGACGAG,0.971 ± 0.018
20,AAGTACCTAT,1.27 ± 0.058
21,ATGATCTGAG,1.028 ± 0.005
22,ATTGTGAGAC,0.986 ± 0.01
23,GAAAAAATGG,1.15 ± 0.26
24,AAGTGATTTG,1.01 ± 0.018
25,CCAAAAAGTG,1.03 ± 0.031

row,Sequence,switch fluorescence ratio
1,TTAGACCGGA,1.02 ± 0.056
2,GTGGGTGTCC,1.01 ± 0.017
3,GGTTTATTAA,0.983 ± 0.011
4,GTTATAAAAA,1.01 ± 0.07
5,AGTTGGATGT,0.977 ± 0.012
6,GGGCAAACTT,1.02 ± 0.018
7,TTTGGGGTAC,1.72 ± 1.3
8,TCTTTTCGAA,1.01 ± 0.033
9,GCGGGGGGGG,1.02 ± 0.041
10,GCGTACTGTG,0.994 ± 0.022
11,TGGCCCGGGC,1.02 ± 0.017
12,CGTGCTCAGA,0.996 ± 0.025
13,AGGAGGGGGC,1 ± 0.048
14,TGGGAGGAGT,1 ± 0.048
15,ATTGATATTG,0.979 ± 0.011
16,TTGCCCGAA,1.01 ± 0.043
17,ATTAGAAATG,0.9973 ± 0.0062
18,GAGACTATTT,0.976 ± 0.056
19,CATGGGGTGC,1.04 ± 0.024
20,AGGCGTTGGG,1.01 ± 0.015
21,TGTGATAGGG,0.978 ± 0.06
22,TAAGGGGGTG,1.01 ± 0.023
23,GGAATAGGGG,0.991 ± 0.018
24,GATTGTAATC,0.99 ± 0.0063
25,GGGGCGGGGT,1.01 ± 0.018

row,Sequence,switch fluorescence ratio
1,GGGGACGTAC,1.47 ± 0.22
2,ACCTAATTAG,1.06 ± 0.073
3,CCTTCTGGGG,1.12 ± 0.051
4,TTGATGCGTG,0.9661 ± 0.0063
5,TTAACCGATA,1.04 ± 0.031
6,ACTGTAATGT,1.13 ± 0.011
7,TTCGGGTTTC,1.04 ± 0.058
8,TCGGATTGGA,0.981 ± 0.028
9,TATATGACGG,0.997 ± 0.027
10,ATCATCGCTA,1.094 ± 0.0084
11,CATCGAATGC,1.23 ± 0.12
12,TATAGCAGGG,1.03 ± 0.018
13,TCTAAGGGTG,1.014 ± 0.01
14,GAAAACAGTT,0.9951 ± 0.0053
15,CAAATACCTG,1.04 ± 0.019
16,GAAGGTTAGG,0.9866 ± 0.0081
17,ACTGGGTAAA,1.002 ± 0.0086
18,CGTACTTGTT,1.01 ± 0.035
19,CAGGTGAGTT,1.34 ± 0.32
20,TTTGCAAATT,1.03 ± 0.039
21,GTGTCGAAGG,0.976 ± 0.051
22,CTTAGGGTTG,0.999 ± 0.013
23,TATATTTTGT,1.02 ± 0.016
24,TTAGGGAGTG,1 ± 0.027
25,ATGTACCGCG,1.06 ± 0.016

row,Sequence,switch fluorescence ratio
1,AGAGCAGTGT,1.01 ± 0.014
2,TTTTTCGGCG,1.01 ± 0.029
3,GTGACTATGG,0.96325 ± 0.00082
4,GGGTGATTGA,0.988 ± 0.021
5,TTAGGGGGTG,1.01 ± 0.025
6,GTTTAGAGTG,0.944 ± 0.033
7,GCGTCGGGGG,1.01 ± 0.028
8,CGTATGGGGA,1 ± 0.023
9,TAGCATCTGT,1 ± 0.03
10,TTGTAATTTA,1.01 ± 0.019
11,TCTTTAAAGT,1.04 ± 0.083
12,AGGGAAAGCG,0.996 ± 0.044
13,GAGTTGTCTT,0.9538 ± 0.0062
14,GCTCCATTTG,0.983 ± 0.021
15,CGGGGGGAGC,1.01 ± 0.056
16,ATCACCGCGC,1.59 ± 0.093
17,ACGGCATTAT,1.164 ± 0.0042
18,GGTTAGAAAT,0.98 ± 0.016
19,TAGGGTATG,0.983 ± 0.053
20,TTTAGCGTTT,0.997 ± 0.051
21,GGTCTATCGG,0.965 ± 0.018
22,CGGACCGGGG,0.996 ± 0.041
23,TTGTGGTGAC,0.9866 ± 0.0012
24,AGTTATGTTA,1 ± 0.022
25,GGGTTTAGCG,1.014 ± 0.0022

row,Sequence,switch fluorescence ratio
1,GGCAACTTCT,1.02 ± 0.011
2,GGAAGAGAAC,0.995 ± 0.017
3,GATTTAATTT,1.001 ± 0.0063
4,GGACTTCCTG,1.003 ± 0.0065
5,CGCAGTTCTT,1.198 ± 0.0086
6,TGGTGGGTGT,0.987 ± 0.024
7,ATTTTCCTTT,1.02 ± 0.039
8,ATGATATTTC,0.961 ± 0.021
9,TTAAATGGTT,0.9783 ± 0.0076
10,GTGGGATGGG,0.973 ± 0.019
11,AATTTGACGT,0.981 ± 0.034
12,TAGTATGGTA,1.01 ± 0.011
13,GGTTGATTAT,0.9793 ± 0.0065
14,ACGATTGGTT,1.005 ± 0.01
15,ATGCTGGGTT,0.993 ± 0.048
16,CGAGTTAGGC,1.03 ± 0.063
17,ATGATAGTGA,0.991 ± 0.012
18,TCTGTTTTGG,1 ± 0.038
19,TCATGACGGT,1.011 ± 0.0028
20,GTTGAGGGA,1.04 ± 0.079
21,ATTGCGCTTC,1.063 ± 0.0095
22,AGGGATCGG,1 ± 0.05
23,GGGTGAGTAG,1.02 ± 0.067
24,GACAGGTGGG,1.07 ± 0.059
25,ATAGAGACTA,1.006 ± 0.0078

row,Sequence,switch fluorescence ratio
1,GGTCTGAAGT,1.008 ± 0.004
2,TACTGCGGAA,1.79 ± 1.2
3,GTTTTTATGT,0.973 ± 0.014
4,TGGGTTTGTA,0.984 ± 0.019
5,GGAGTGGTTC,0.999 ± 0.013
6,AGCAATGTCT,1.26 ± 0.065
7,TTTTAGATGA,0.966 ± 0.027
8,ACATCCCGTT,1.05 ± 0.048
9,CGCGCTTTTG,1.01 ± 0.017
10,CTGGGACTTG,1 ± 0.013
11,CGAGGGCTGA,1.02 ± 0.015
12,ACCAGGGCTT,1.08 ± 0.021
13,GAAGGGAAAG,1.02 ± 0.012
14,GCGGGCTAAC,1.17 ± 0.24
15,GGGGAAGAAG,0.969 ± 0.02
16,ATGGGGGAGT,0.9768 ± 0.0031
17,CAATCTTCGT,1.02 ± 0.021
18,GGGCAACTGA,1.01 ± 0.024
19,CCAGGAGGAG,1 ± 0.027
20,AATTGTTAAC,0.995 ± 0.016
21,GGTCCTGCGG,1.01 ± 0.087
22,AGAGATGGTT,0.979 ± 0.012
23,GGGAATTTTT,1 ± 0.053
24,GAGTTTATAT,1.01 ± 0.017
25,TCTAGCGTAC,2.64 ± 0.44

row,Sequence,switch fluorescence ratio
1,ATTGATTTGT,0.975 ± 0.018
2,TGAAAATTCG,1.08 ± 0.11
3,ATATAAAATG,0.986 ± 0.0046
4,TCGGAGGTGT,1.01 ± 0.027
5,AATTTTATGT,1.01 ± 0.011
6,GGATTCTGGA,0.991 ± 0.031
7,CGAAGGAATC,1.78 ± 1.1
8,GCCTTTTGTT,0.995 ± 0.027
9,AGTTGGGGGG,0.986 ± 0.01
10,CGGCCAGCTG,1.03 ± 0.03
11,TGAGGCTGTT,1 ± 0.031
12,GATTCACTAA,0.989 ± 0.054
13,GCTTTTTGTC,1.06 ± 0.013
14,TTAACGAGTG,0.999 ± 0.022
15,TATGGTATGC,1.0138 ± 0.00069
16,TAGGCACCGA,1.03 ± 0.053
17,TTGCCTGTG,1.03 ± 0.033
18,TTATGCTTCT,1.01 ± 0.053
19,CGAAATCGGG,1.02 ± 0.018
20,GGTATATGTG,1 ± 0.025
21,TTGGGTGTTT,1.06 ± 0.035
22,CTGGTAGAGG,0.979 ± 0.048
23,CGGGGTGGTG,1.04 ± 0.067
24,TACGGGGATG,0.9963 ± 0.0056
25,CTGGGCACAT,1.05 ± 0.015
